# Results as given in article PMC2064291.
# Target: vitronectin (urea-purified)
# Experiment: solid-phase binding assay
row,Substance,fold reduction in binding [fold]
1,soluble uPAR I63A (from UniProt Q03405 23-305) (domain or fragment),> 5
2,soluble uPAR R91A (from UniProt Q03405 23-305) (domain or fragment),> 5
3,soluble uPAR Y92A (from UniProt Q03405 23-305) (domain or fragment),> 5

# Now from value to substance:
row,fold reduction in binding [fold],Substance
1,> 5,soluble uPAR R58A (from UniProt Q03405 23-305) (domain or fragment)
2,> 5,soluble uPAR W32A (from UniProt Q03405 23-305) (domain or fragment)
